The results in this text go back to the supplement of paper PMC5998384.

For data set [1], the system named is HeLa Kyoto. Briefly: thermal stability score vs G1/S (z-score of summed log2 fold changes over temperatures); higher = more thermally stable than in G1/S.
In data set [2] the test system is HeLa Kyoto. Briefly: melting temperature (median over replicates), in situ; higher = more thermally stable.
Data set [3] concerns HeLa Kyoto. Briefly: solubility change mitosis vs G1/S (difference of NP-40 vs SDS log2 ratios) (log2 ratio difference); higher = more soluble in mitosis.
Data set [4] deals with HeLa Kyoto. The experiment in a line: solubility in G1/S (NP-40 vs SDS abundance) (log2 ratio); higher = more soluble. To be noted: cell cycle stage: G1/S.
The mark [5] stands for this setting: cell cycle stage: early G1 (4.5 h after nocodazole release).
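For melting temperature (median over replicates), in situ in this document: HeLa Kyoto cells synchronized by double thymidine or nocodazole block, proteins quantified by TMT10plex mass spectrometry, three independent biological replicates.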
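For solubility change mitosis vs G1/S (difference of NP-40 vs SDS log2 ratios) in this document: synchronized HeLa Kyoto cells (double thymidine block for G1/S, nocodazole release for mitosis), protein amounts in NP-40 versus SDS lysates quantified by mass spectrometry, three biological replicates.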
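For solubility in G1/S (NP-40 vs SDS abundance) in this document: HeLa Kyoto cells arrested at G1/S by double thymidine block, proteins quantified by TMT10plex mass spectrometry in mild NP-40 versus SDS extracts, three biological replicates.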
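For thermal stability score vs G1/S (z-score of summed log2 fold changes over temperatures) in this document: synchronized HeLa Kyoto cells, proteins quantified by TMT10plex mass spectrometry, three biological replicates, mitosis taken 0.5 h after nocodazole release, G1/S directly after double thymidine block.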

Turning to “MGDREQLLQRARLAEQAERYDDMASAMKAVTELNEPLSNEDRNLLSVAYKNVVGARRSSWRVISSIEQKTMADGNEKKLEKVKAYREKIEKELETVCNDVLSLLDKFLIKNCNDFQYESKVFYLKMKGDYYRYLAEVASGEKKNSVVEASEAAYKEAFEISKEQMQPTHPIRLGLALNFSVFYYEIQNAPEQACLLAKQAFDDAIAELDTLNEDSYKDSTLIMQLLRDNLTLWTSDQQDEEAGEGN [YWHAH]”, the thermal stability score was -1.65 with HeLa Kyoto [1] (setting [5]) and -1.58 in the data set with HeLa Kyoto [1] (cell cycle stage: mitosis). Further, the melting temperature was 52.5 °C with HeLa Kyoto [2] (cell cycle stage: G1/S) and 52.6 °C in the data set with HeLa Kyoto [2] (cell cycle stage: mitosis). Further, in the data set on HeLa Kyoto [3], the “solubility change mitosis (log2)” value turned out to be 0.0669. Moreover, the “solubility in G1/S (log2)” value in the data set on HeLa Kyoto [4] amounted to 0.565.

As to “MGDSDDEYDRRRRDKFRRERSDYDRSRERDERRRGDDWNDREWDRGRERRSRGEYRDYDRNRRERFSPPRHELSPPQKRMRRDWDEHSSDPYHSGYEMPYAGGGGGPTYGPPQPWGHPDVHIMQHHVLPIQARLGSIAEIDLGVPPPVMKTFKEFLLSLDDSVDETEAVKRYNDYKLDFRRQQMQDFFLAHKDEEWFRSKYHPDEVGKRRQEARGALQNRLRVFLSLMETGWFDNLLLDIDKADAIVKMLDAAVIKMEGGTENDLRILEQEEEEEQAGKPGEPSKKEEGRAGAGLGDGERKTNDKDEKKEDGKQAENDSSNDDKTKKSEGDGDKEEKKEDSEKEAKKSSKKRNRKHSGDDSFDEGSVSESESESESGQAEEEKEEAEEALKEKEKPKEEEWEKPKDAAGLECKPRPLHKTCSLFMRNIAPNISRAEIISLCKRYPGFMRVALSEPQPERRFFRRGWVTFDRSVNIKEICWNLQNIRLRECELSPGVNRDLTRRVRNINGITQHKQIVRNDIKLAAKLIHTLDDRTQLWASEPGTPPLPTSLPSQNPILKNITDYLIEEVSAEEEELLGSSGGAPPEEPPKEGNPAEINVERDEKLIKVLDKLLLYLRIVHSLDYYNTCEYPNEDEMPNRCGIIHVRGPMPPNRISHGEVLEWQKTFEEKLTPLLSVRESLSEEEAQKMGRKDPEQEVEKFVTSNTQELGKDKWLCPLSGKKFKGPEFVRKHIFNKHAEKIEEVKKEVAFFNNFLTDAKRPALPEIKPAQPPGPAQILPPGLTPGLPYPHQTPQGLMPYGQPRPPILGYGAGAVRPAVPTGGPPYPHAPYGAGRGNYDAFRGQGGYPGKPRNRMVRGDPRAIVEYRDLDAPDDVDFF [SRRT]”, the thermal stability score in the data set with HeLa Kyoto [1] (setting [5]) was 2.79; in the data set with HeLa Kyoto [1] (cell cycle stage: mitosis), 6.86. Also, the melting temperature worked out at 48.2 °C in the data set on HeLa Kyoto [2] (cell cycle stage: G1/S) and 49.1 °C in the data set with HeLa Kyoto [2] (cell cycle stage: mitosis). In addition, in the data set on HeLa Kyoto [3], the “solubility change mitosis (log2)” value stood at 0.214. Moreover, the “solubility in G1/S (log2)” value with HeLa Kyoto [4] was -0.305.

On to “MGDTSEDASIHRLEGTDLDCQVGGLICKSKSAASEQHVFKAPAPRPSLLGLDLLASLKRREREEKDDGEDKKKSKVSSYKDWEESKDDQKDAEEEGGDQAGQNIRKDRHYRSARVETPSHPGGVSEEFWERSRQRERERREHGVYASSKEEKDWKKEKSRDRDYDRKRDRDERDRSRHSSRSERDGGSERSSRRNEPESPRHRPKDAATPSRSTWEEEDSGYGSSRRSQWESPSPTPSYRDSERSHRLSTRDRDRSVRGKYSDDTPLPTPSYKYNEWADDRRHLGSTPRLSRGRGRREEGEEGISFDTEEERQQWEDDQRQADRDWYMMDEGYDEFHNPLAYSSEDYVRRREQHLHKQKQKRISAQRRQINEDNERWETNRMLTSGVVHRLEVDEDFEEDNAAKVHLMVHNLVPPFLDGRIVFTKQPEPVIPVKDATSDLAIIARKGSQTVRKHREQKERKKAQHKHWELAGTKLGDIMGVKKEEEPDKAVTEDGKVDYRTEQKFADHMKRKSEASSEFAKKKSILEQRQYLPIFAVQQELLTIIRDNSIVIVVGETGSGKTTQLTQYLHEDGYTDYGMIGCTQPRRVAAMSVAKRVSEEMGGNLGEEVGYAIRFEDCTSENTLIKYMTDGILLRESLREADLDHYSAIIMDEAHERSLNTDVLFGLLREVVARRSDLKLIVTSATMDAEKFAAFFGNVPIFHIPGRTFPVDILFSKTPQEDYVEAAVKQSLQVHLSGAPGDILIFMPGQEDIEVTSDQIVEHLEELENAPALAVLPIYSQLPSDLQAKIFQKAPDGVRKCIVATNIAETSLTVDGIMFVIDSGYCKLKVFNPRIGMDALQIYPISQANANQRSGRAGRTGPGQCFRLYTQSAYKNELLTTTVPEIQRTNLANVVLLLKSLGVQDLLQFHFMDPPPEDNMLNSMYQLWILGALDNTGGLTSTGRLMVEFPLDPALSKMLIVSCDMGCSSEILLIVSMLSVPAIFYRPKGREEESDQIREKFAVPESDHLTYLNVYLQWKNNNYSTIWCNDHFIHAKAMRKVREVRAQLKDIMVQQRMSLASCGTDWDIVRKCICAAYFHQAAKLKGIGEYVNIRTGMPCHLHPTSSLFGMGYTPDYIVYHELVMTTKEYMQCVTAVDGEWLAELGPMFYSVKQAGKSRQENRRRAKEEASAMEEEMALAEEQLRARRQEQEKRSPLGSVRSTKIYTPGRKEQGEPMTPRRTPARFGL [DHX38]”, for which the thermal stability score in the data set on HeLa Kyoto [1] (setting [5]) came to 0.477; in the data set on HeLa Kyoto [1] (cell cycle stage: mitosis) it was 0.888. Also, the melting temperature worked out at 50.8 °C in the data set on HeLa Kyoto [2] (cell cycle stage: G1/S) and 52 °C in the data set with HeLa Kyoto [2] (cell cycle stage: mitosis). Also, in the data set with HeLa Kyoto [3], the “solubility change mitosis (log2)” value came to 0.0419. The “solubility in G1/S (log2)” value in the data set with HeLa Kyoto [4] was -0.327.

For “MGEIEQRPTPGSRLGAPENSGISTLERGQKPPPTPSGKLVSIKIQMLDDTQEAFEVPQRAPGKVLLDAVCNHLNLVEGDYFGLEFPDHKKITVWLDLLKPIVKQIRRPKHVVVKFVVKFFPPDHTQLQEELTRYLFALQVKQDLAQGRLTCNDTSAALLISHIVQSEIGDFDEALDREHLAKNKYIPQQDALEDKIVEFHHNHIGQTPAESDFQLLEIARRLEMYGIRLHPAKDREGTKINLAVANTGILVFQGFTKINAFNWAKVRKLSFKRKRFLIKLRPDANSAYQDTLEFLMASRDFCKSFWKICVEHHAFFRLFEEPKPKPKPVLFSRGSSFRFSGRTQKQVLDYVKEGGHKKVQFERKHSKIHSIRSLASQPTELNSEVLEQSQQSTSLTFGEGAESPGGQSCRRGKEPKVSAGEPGSHPSPAPRRSPAGNKQADGAASAPTEEEEEVVKDRTQQSKPQPPQPSTGSLTGSPHLSELSVNSQGGVAPANVTLSPNLSPDTKQASPLISPLLNDQACPRTDDEDEGRRKRFPTDKAYFIAKEVSTTERTYLKDLEVITSWFQSTVSKEDAMPEALKSLIFPNFEPLHKFHTNFLKEIEQRLALWEGRSNAQIRDYQRIGDVMLKNIQGMKHLAAHLWKHSEALEALENGIKSSRRLENFCRDFELQKVCYLPLNTFLLRPLHRLMHYKQVLERLCKHHPPSHADFRDCRAALAEITEMVAQLHGTMIKMENFQKLHELKKDLIGIDNLVVPGREFIRLGSLSKLSGKGLQQRMFFLFNDVLLYTSRGLTASNQFKVHGQLPLYGMTIEESEDEWGVPHCLTLRGQRQSIIVAASSRSEMEKWVEDIQMAIDLAEKSSSPAPEFLASSPPDNKSPDEATAADQESEDDLSASRTSLERQAPHRGNTMVHVCWHRNTSVSMVDFSIAVENQLSGNLLRKFKNSNGWQKLWVVFTNFCLFFYKSHQDNHPLASLPLLGYSLTIPSESENIQKDYVFKLHFKSHVYYFRAESEYTFERWMEVIRSATSSASRPHVLSHKESLVY [FARP1]”, the values for the thermal stability score with HeLa Kyoto [1] (setting [5]) and with HeLa Kyoto [1] (cell cycle stage: mitosis) were 1.1 and 2.25, respectively. Also, the melting temperature with HeLa Kyoto [2] (cell cycle stage: G1/S) was determined as 49.2 °C; in the data set with HeLa Kyoto [2] (cell cycle stage: mitosis), 49.1 °C. For the same sequence, the “solubility change mitosis (log2)” value in the data set on HeLa Kyoto [3] was -0.0824. Moreover, the “solubility in G1/S (log2)” value with HeLa Kyoto [4] is -0.198.
